Measured values: US20140087995A1 (published 2014)
Numbered stars: 1 amine (or outer) side, 2 acyl side, 3 side chain; on linkers, the order of the positions; unused ones are H or OH. Bridge positions count the residues as written; N and C are the ends. Side chains are listed from the residue outwards. Ends that are not written are not given here. * marks the point of attachment. C20 diacid = O=C(O)CCCCCCCCCCCCCCCCCCC(=O)*; γGlu = O=C(O)[C@H](CCC(=O)[*:2])N[*:1]; AEEA = NCCOCCOCC(=O)O

B1: N^ε1-[(4S)-4-carboxy-4-(19-carboxynonadecanoylamino)butanoyl]-[Arg17,Pro21,Pro27]-h-amylin (peptide)
peptide: K([γGlu-C20 diacid])CNTATCATQRLANFLRHSSPNFGAIPSSTNVGSNTY-NH2
modifications: disulfide 2-7 (inferred)
notes: analogue of human amylin; also called compound 48
B2: N^ε1-[2-[2-[2-[[(4S)-4-carboxy-4-(19-carboxynonadecanoylamino)butanoyl]amino]ethoxy]ethoxy]acetyl]-[Arg17,Pro21,Pro27,His34]-h-amylin (peptide)
peptide: K([AEEA-γGlu-C20 diacid])CNTATCATQRLANFLRHSSPNFGAIPSSTNVGHNTY-NH2
modifications: disulfide 2-7; N-terminus assumed
SMILES: CC[C@H](C)[C@H](NC(=O)[C@H](C)NC(=O)CNC(=O)[C@H](Cc1ccccc1)NC(=O)[C@H](CC(N)=O)NC(=O)[C@@H]1CCCN1C(=O)[C@H](CO)NC(=O)[C@H](CO)NC(=O)[C@H](Cc1c[nH]cn1)NC(=O)[C@H](CCCNC(=N)N)NC(=O)[C@H](CC(C)C)NC(=O)[C@H](Cc1ccccc1)NC(=O)[C@H](CC(N)=O)NC(=O)[C@H](C)NC(=O)[C@H](CC(C)C)NC(=O)[C@H](CCCNC(=N)N)NC(=O)[C@H](CCC(N)=O)NC(=O)[C@@H](NC(=O)[C@H](C)NC(=O)[C@@H]1CSSC[C@H](NC(=O)[C@@H](N)CCCCNC(=O)COCCOCCNC(=O)CC[C@H](NC(=O)CCCCCCCCCCCCCCCCCCC(=O)O)C(=O)O)C(=O)N[C@@H](CC(N)=O)C(=O)N[C@@H]([C@@H](C)O)C(=O)N[C@@H](C)C(=O)N[C@@H]([C@@H](C)O)C(=O)N1)[C@@H](C)O)C(=O)N1CCC[C@H]1C(=O)N[C@@H](CO)C(=O)N[C@@H](CO)C(=O)N[C@H](C(=O)N[C@@H](CC(N)=O)C(=O)N[C@H](C(=O)NCC(=O)N[C@@H](Cc1c[nH]cn1)C(=O)N[C@@H](CC(N)=O)C(=O)N[C@H](C(=O)N[C@@H](Cc1ccc(O)cc1)C(N)=O)[C@@H](C)O)C(C)C)[C@@H](C)O
notes: also called compound 76
B3: N^ε1-[2-[2-[2-[[2-[2-[2-[[(4S)-4-carboxy-4-(19-carboxynonadecanoylamino)butanoyl]amino]ethoxy]ethoxy]acetyl]amino]ethoxy]ethoxy]acetyl]-[Arg17,Pro21,Pro27,Arg34 … (peptide)
peptide: K([AEEA-AEEA-γGlu-C20 diacid])CNTATCATQRLANFLRHSSPNFGAIPSSTNVGRNTY-NH2
modifications: disulfide 2-7; N-terminus assumed
SMILES: CC[C@H](C)[C@H](NC(=O)[C@H](C)NC(=O)CNC(=O)[C@H](Cc1ccccc1)NC(=O)[C@H](CC(N)=O)NC(=O)[C@@H]1CCCN1C(=O)[C@H](CO)NC(=O)[C@H](CO)NC(=O)[C@H](Cc1c[nH]cn1)NC(=O)[C@H](CCCNC(=N)N)NC(=O)[C@H](CC(C)C)NC(=O)[C@H](Cc1ccccc1)NC(=O)[C@H](CC(N)=O)NC(=O)[C@H](C)NC(=O)[C@H](CC(C)C)NC(=O)[C@H](CCCNC(=N)N)NC(=O)[C@H](CCC(N)=O)NC(=O)[C@@H](NC(=O)[C@H](C)NC(=O)[C@@H]1CSSC[C@H](NC(=O)[C@@H](N)CCCCNC(=O)COCCOCCNC(=O)COCCOCCNC(=O)CC[C@H](NC(=O)CCCCCCCCCCCCCCCCCCC(=O)O)C(=O)O)C(=O)N[C@@H](CC(N)=O)C(=O)N[C@@H]([C@@H](C)O)C(=O)N[C@@H](C)C(=O)N[C@@H]([C@@H](C)O)C(=O)N1)[C@@H](C)O)C(=O)N1CCC[C@H]1C(=O)N[C@@H](CO)C(=O)N[C@@H](CO)C(=O)N[C@H](C(=O)N[C@@H](CC(N)=O)C(=O)N[C@H](C(=O)NCC(=O)N[C@@H](CCCNC(=N)N)C(=O)N[C@@H](CC(N)=O)C(=O)N[C@H](C(=O)N[C@@H](Cc1ccc(O)cc1)C(N)=O)[C@@H](C)O)C(C)C)[C@@H](C)O
notes: also called compound 95
B4: N^ε1-[2-[2-[2-[[(4S)-4-carboxy-4-(19-carboxynonadecanoylamino)butanoyl]amino]ethoxy]ethoxy]acetyl]-[Arg17,Pro21,Pro27,Arg35]-h-amylin (peptide)
peptide: K([AEEA-γGlu-C20 diacid])CNTATCATQRLANFLRHSSPNFGAIPSSTNVGSRTY-NH2
modifications: disulfide 2-7; N-terminus assumed
SMILES: CC[C@H](C)[C@H](NC(=O)[C@H](C)NC(=O)CNC(=O)[C@H](Cc1ccccc1)NC(=O)[C@H](CC(N)=O)NC(=O)[C@@H]1CCCN1C(=O)[C@H](CO)NC(=O)[C@H](CO)NC(=O)[C@H](Cc1c[nH]cn1)NC(=O)[C@H](CCCNC(=N)N)NC(=O)[C@H](CC(C)C)NC(=O)[C@H](Cc1ccccc1)NC(=O)[C@H](CC(N)=O)NC(=O)[C@H](C)NC(=O)[C@H](CC(C)C)NC(=O)[C@H](CCCNC(=N)N)NC(=O)[C@H](CCC(N)=O)NC(=O)[C@@H](NC(=O)[C@H](C)NC(=O)[C@@H]1CSSC[C@H](NC(=O)[C@@H](N)CCCCNC(=O)COCCOCCNC(=O)CC[C@H](NC(=O)CCCCCCCCCCCCCCCCCCC(=O)O)C(=O)O)C(=O)N[C@@H](CC(N)=O)C(=O)N[C@@H]([C@@H](C)O)C(=O)N[C@@H](C)C(=O)N[C@@H]([C@@H](C)O)C(=O)N1)[C@@H](C)O)C(=O)N1CCC[C@H]1C(=O)N[C@@H](CO)C(=O)N[C@@H](CO)C(=O)N[C@H](C(=O)N[C@@H](CC(N)=O)C(=O)N[C@H](C(=O)NCC(=O)N[C@@H](CO)C(=O)N[C@@H](CCCNC(=N)N)C(=O)N[C@H](C(=O)N[C@@H](Cc1ccc(O)cc1)C(N)=O)[C@@H](C)O)C(C)C)[C@@H](C)O
notes: Acylated analogue of human amylin; also called compound 38
B5: N^ε1-[(4S)-4-carboxy-4-[[(4S)-4-carboxy-4-(19-carboxynonadecanoylamino)butanoyl]amino]butanoyl]-[Asp14,Arg17,Pro21,Pro27,Arg35]-h-amylin (peptide)
peptide: K([γGlu-γGlu-C20 diacid])CNTATCATQRLADFLRHSSPNFGAIPSSTNVGSRTY-NH2
modifications: disulfide 2-7; N-terminus assumed
SMILES: CC[C@H](C)[C@H](NC(=O)[C@H](C)NC(=O)CNC(=O)[C@H](Cc1ccccc1)NC(=O)[C@H](CC(N)=O)NC(=O)[C@@H]1CCCN1C(=O)[C@H](CO)NC(=O)[C@H](CO)NC(=O)[C@H](Cc1c[nH]cn1)NC(=O)[C@H](CCCNC(=N)N)NC(=O)[C@H](CC(C)C)NC(=O)[C@H](Cc1ccccc1)NC(=O)[C@H](CC(=O)O)NC(=O)[C@H](C)NC(=O)[C@H](CC(C)C)NC(=O)[C@H](CCCNC(=N)N)NC(=O)[C@H](CCC(N)=O)NC(=O)[C@@H](NC(=O)[C@H](C)NC(=O)[C@@H]1CSSC[C@H](NC(=O)[C@@H](N)CCCCNC(=O)CC[C@H](NC(=O)CC[C@H](NC(=O)CCCCCCCCCCCCCCCCCCC(=O)O)C(=O)O)C(=O)O)C(=O)N[C@@H](CC(N)=O)C(=O)N[C@@H]([C@@H](C)O)C(=O)N[C@@H](C)C(=O)N[C@@H]([C@@H](C)O)C(=O)N1)[C@@H](C)O)C(=O)N1CCC[C@H]1C(=O)N[C@@H](CO)C(=O)N[C@@H](CO)C(=O)N[C@H](C(=O)N[C@@H](CC(N)=O)C(=O)N[C@H](C(=O)NCC(=O)N[C@@H](CO)C(=O)N[C@@H](CCCNC(=N)N)C(=O)N[C@H](C(=O)N[C@@H](Cc1ccc(O)cc1)C(N)=O)[C@@H](C)O)C(C)C)[C@@H](C)O
notes: Acylated analogue of human amylin; also called compound 52

Columns and labels:
[1] = target: T1, rat calcitonin receptor (rat, UniProt P32214 25-516); assay: SPA competition with 125I-calcitonin, membranes of BHK cells with rat calcitonin receptor (Assay VIII)
T1 construct: whole, on cells; membranes of transiently transfected BHK tk'ts 13 cells (Assay VIII); also called rCTR; rat calcitonin (a) receptor
T1 sequence (looked up): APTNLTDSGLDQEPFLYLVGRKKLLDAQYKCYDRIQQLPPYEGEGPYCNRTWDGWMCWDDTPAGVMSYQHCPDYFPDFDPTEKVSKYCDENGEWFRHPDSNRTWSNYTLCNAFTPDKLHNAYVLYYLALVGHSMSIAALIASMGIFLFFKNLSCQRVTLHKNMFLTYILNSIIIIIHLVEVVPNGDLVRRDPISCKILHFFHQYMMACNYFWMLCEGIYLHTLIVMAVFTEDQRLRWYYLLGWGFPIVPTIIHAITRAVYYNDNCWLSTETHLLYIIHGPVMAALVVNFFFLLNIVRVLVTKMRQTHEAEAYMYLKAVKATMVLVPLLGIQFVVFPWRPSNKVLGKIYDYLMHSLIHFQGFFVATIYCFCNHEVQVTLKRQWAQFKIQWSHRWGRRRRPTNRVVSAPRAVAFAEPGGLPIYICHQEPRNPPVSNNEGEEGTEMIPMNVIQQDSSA

[2] = target: T1, rat calcitonin receptor; assay: IC50 on rat calcitonin receptor divided by IC50 on rat amylin receptor (SPA competition)
[3] = target: T2, human calcitonin receptor (human, UniProt P30988 25-474); assay: IC50 on human calcitonin receptor divided by IC50 on human amylin receptor (SPA competition)
T2 construct: whole, on cells; membranes of stably transfected BHK cells (Assay VII); also called hCTR; hCT
T2 sequence (looked up): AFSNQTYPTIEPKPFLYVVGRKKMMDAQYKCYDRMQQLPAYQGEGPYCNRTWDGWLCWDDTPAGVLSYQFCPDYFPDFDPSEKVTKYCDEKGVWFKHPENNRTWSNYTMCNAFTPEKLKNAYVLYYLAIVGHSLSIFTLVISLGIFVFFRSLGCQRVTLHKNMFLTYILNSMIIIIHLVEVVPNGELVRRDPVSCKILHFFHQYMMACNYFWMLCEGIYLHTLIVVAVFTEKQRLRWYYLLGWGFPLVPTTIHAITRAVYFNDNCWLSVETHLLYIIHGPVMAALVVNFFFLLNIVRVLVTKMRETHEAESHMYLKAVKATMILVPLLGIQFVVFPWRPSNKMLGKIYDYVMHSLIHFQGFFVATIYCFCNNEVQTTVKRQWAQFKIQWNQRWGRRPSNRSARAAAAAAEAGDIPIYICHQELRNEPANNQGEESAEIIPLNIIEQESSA
Method in brief: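 IC₅₀ values were derived by one-site competition analysis of SPA counts. Cell membranes (35 ng/μL) with SPA beads were incubated with test compounds for 120 min at 25° C in Hepes buffer, pH 7.4, containing CaCl2, MgCl₂, OA and Tween20.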

[4] = target: T3, rat amylin receptor (rat calcitonin receptor + rat RAMP 3) (rat, UniProt P32214 25-516; Q9JJ73 23-147); assay: SPA competition with 125I-rat amylin, membranes of BHK cells with rat calcitonin receptor + rat RAMP3 (Assay VI)
T3 construct: whole, on cells; membranes of transiently transfected BHK tk'ts 13 cells (Assay VI); also called rAmylin-R; rat amylin 3(a) receptor
T3 sequence (looked up) 1: T1 sequence (looked up)
T3 sequence (looked up) 2: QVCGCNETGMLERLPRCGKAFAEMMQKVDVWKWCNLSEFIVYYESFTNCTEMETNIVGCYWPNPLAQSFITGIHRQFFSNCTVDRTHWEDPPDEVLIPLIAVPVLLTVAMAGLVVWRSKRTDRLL

[5] = target: T4, human calcitonin receptor (human, UniProt P30988 25-474); assay: cell-based or functional assay
T4 sequence (looked up): T2 sequence (looked up)

[6] = target: T5, human amylin receptor (amylin 3(a) receptor: human calcitonin receptor coexpressed with RAMP-3) (human, UniProt P30988 25-474; O60896 24-148); assay: cell-based or functional assay
T5 sequence (looked up) 1: T2 sequence (looked up)
T5 sequence (looked up) 2: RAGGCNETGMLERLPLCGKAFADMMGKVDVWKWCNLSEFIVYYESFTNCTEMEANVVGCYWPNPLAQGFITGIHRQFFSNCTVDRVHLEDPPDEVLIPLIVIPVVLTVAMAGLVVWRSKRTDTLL

[7] = target: T6, rat calcitonin receptor (rat, UniProt P32214 25-516); assay: SPA competition vs 125I-calcitonin, membranes with rat CTR (Assay VIII)
T6 construct: whole, on cells; Cell membranes of transiently transfected BHK tk'ts 13 cells (Assay VIII); also called rCTR; rCT
T6 sequence (looked up): T1 sequence (looked up)

[8] = target: T7, rat amylin receptor (rat calcitonin receptor + rat RAMP 3) (rat, UniProt P32214 25-516; Q9JJ73 23-147); assay: SPA competition vs 125I-rat amylin, membranes with rat CTR + rat RAMP3 (Assay VI)
T7 construct: whole, on cells; Cell membranes of transiently transfected BHK tk'ts 13 cells (Assay VI); also called rAmylin-R; rat amylin 3(a) receptor
T7 sequence (looked up) 1: T1 sequence (looked up)
T7 sequence (looked up) 2: T3 sequence (looked up) 2

Row | Binder | hCTR funct. EC50 (pM) [5] [pM] | hAmylin-R funct. EC50 (pM) [6] [pM] | IC50 [7] [nM] | IC50 [8] [nM] | further results
1 | B1 |  |  |  |  | IC50 [1]: 112 nM; Ratio rCT/rAmylin binding [2]: 201; Ratio hCT/hAmylin binding [3]: 69.7; IC50 [4]: 0.558 nM
2 | B2 | 7370 | 297 |  |  | 
3 | B3 | 21500 | 651 |  |  | Ratio hCT/hAmylin funct. [5]: 33
4 | B4 |  |  | 38 | 0.383 | 
5 | B5 |  |  | 159 | 0.335 | 
